# Laboratory results as given in US20210188989A1 (SYSTIMMUNE, published 2021).
# Changes are numbered by the printed parent chain.
# T1: recombinant cynomolgus 4-1BB extracellular domain protein (cynomolgus, UniProt A9YYE7 24-186)
# T1 construct: Analyte in the Octet assay
# T1 sequence: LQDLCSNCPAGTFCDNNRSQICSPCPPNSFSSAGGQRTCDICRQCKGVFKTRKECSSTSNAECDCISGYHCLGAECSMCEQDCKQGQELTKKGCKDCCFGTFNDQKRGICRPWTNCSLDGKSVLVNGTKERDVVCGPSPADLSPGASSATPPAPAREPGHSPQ
# B1: 416G1 (antibody, human IgG1, kappa, V domains shown)
# VH: QSVEESGGRLVTPGTPLTLTCTVSGFTINSYHMIWVRQAPGEGLEYIGFINDGGFTYYASWAKGRFIISRTSTTVDLKMTSLTVADTATYFCARGVDGTSYPDLWGPGTLVTVSS
# VL: DVVMTQTPASVSEPVGGAVTIKCQASQSIGSDLAWYQQKPGQPPKLLIYRASTLASGVSSRFKGSGSGTEFTLTISDLECADAATYYCQCIYYGSDDVIYHTFGGGTEVVVKR
# notes: one of the 34 chimeric antibodies; rabbit variable regions on human IgG1 and human kappa; also called 416G1 chimeric rabbit/human IgG
# B2: 418E10 (antibody, human IgG1, kappa, V domains shown)
# VH: QSLEESGGRLVTPGTPLTLTCTASDFSLSTYYMSWVRQAPGKGLEWIGSIYDSGAAYYATWAKGRFTISRTSTTVDLRMTSLTAADTATYFCARDPINNAIWGQGTLVTVSS
# VL: ALVMTQTPSPVSAAVGGTVTINCQASQSIGSNLNWYQQKPGQPPKLLIYYVSTLASGVPSRFKGSGSGTEYTLTISGVQCDDAATYYCLGVWNYWGDDGTAFGGGTEVEVKR
# notes: one of the 34 chimeric antibodies; rabbit variable regions on human IgG1 and human kappa; also called 418E10 chimeric rabbit/human IgG
# B3: 418E4 (antibody, human IgG1, kappa, V domains shown)
# VH: B2 VH with D25E, T30S, D52A, A55S, T60S, R78K, A93V, A100D, Q104P
# VL: B2 VL with G30A, S31T, V51T, T53S, K63S, Y71F, V110F
# notes: one of the 34 chimeric antibodies; rabbit variable regions on human IgG1 and human kappa; also called 418E4 chimeric rabbit/human IgG
# B4: 419D9 (antibody, human IgG1, kappa, V domains shown)
# VH: QSLEESGGDLVKPGASLTLTCTASGFSFSSRHYMCWVRQAPGEGLEWIACIYTGSSGTPHYASWAKGRFTISQTSSTTVTLQMTSLTAADTATYFCSSEGNLWGPGTLVTVSS
# VL: AQVLTQTASPVSAAVGGTVTINCQSSQSVYSNWLSWYQQKPGQPPKRLIYSASTLASGVPSRFKGSGSGTQFTLTISDLECDDAATYYCAGGYNTVTDTFAFGRGTEVEVKR
# notes: one of the 34 chimeric antibodies; rabbit variable regions on human IgG1 and human kappa; also called 419D9 chimeric rabbit/human IgG
# B5: 459F1 (antibody, human IgG1, kappa, V domains shown)
# VH: ESLEESGGDLVKPGASLTLTCTASGIDFSRRYYMCWVRQAPGKGLEWIACMYTGSRDTPHYASWAKGRFTISQTSSTTVTLQMTSLTAADTATYFCAREGNLWGPGTLVTVSS
# VL: B4 VL with L34F, R47L, R104G, V110F
# notes: one of the 34 chimeric antibodies; rabbit variable regions on human IgG1 and human kappa; also called 459F1 chimeric rabbit/human IgG
# B6: 420H6 (antibody, human IgG1, kappa, V domains shown)
# VH: QQQLEESGGGLVKPGGTLTLTCKASGIDFSSSYYMCWVRQAPGEGLEWIACIYTGGSGTPHYASWAKGRFTISQTSSTTVTLQMTSLTAADTATYFCAREGSLWGQGTLVTVSS
# VL: B4 VL with S25A, T97I, R104G, V110F
# notes: one of the 34 chimeric antibodies; rabbit variable regions on human IgG1 and human kappa; also called 420H6 chimeric rabbit/human IgG
# B7: 460C3 (antibody, human IgG1, kappa, V domains shown)
# VH: B5 VH with E1Q, M51I, N101S, P105Q
# VL: B4 VL with A8P, P10S, T20S, N22S, L34F, R47L, T97I, R104G, V110F
# notes: one of the 34 chimeric antibodies; rabbit variable regions on human IgG1 and human kappa; also called 460C3 chimeric rabbit/human IgG
# B8: 411H11 VHv1VLv1 (antibody, human IgG1, kappa, V domains shown)
# VH: EVQLVESGGGLVQPGGSLRLSCAASGFTISSHHMIWVRQAPGKGLQYIGFINDGDYTYYTNSAKGRFTISRDNSKNTLYLQMNSLRAEDTAVYYCARGVDGTSYPGLWGQGTLVTVSS
# VL: DVVMTQSPSSVSASVGDRVTITCQASQSIGADLAWYQQKPGKAPKLLIYRASTLASGVPSRFSGSGSGTDFTLTISSLQPEDFATYYCQAIYYGTDDVIYHTFGGGTKVEIKR
# notes: one of the humanized antibodies; also called 411H11 humanized
# B9: 416G1 VHv1VLv1 (antibody, human IgG1, kappa, V domains shown)
# VH: B8 VH with S30N, H32Y, Q46E, D55G, Y56F, T60A, N61S, G106D
# VL: B8 VL with A31S, A90S, T95S
# notes: one of the humanized antibodies; also called 416G1 humanized
# B10: 472E4 VHv1VLv1 (antibody, human IgG1, kappa, V domains shown)
# VH: EVQLVESGGGLVQPGGSLRLSCAASGFSLNNNAISWVRQAPGKGLEWVAIIQNTGTTDYARSAKGRFTISRDNSKNTLYLQMNSLRAEDTAVYYCARGYGFESELVIWGQGTLVTVSS
# VL: DIQMTQSPSSLSASVGDRVTITCQSSQSVYNNNALAWYQQKPGKVPKLLIYLASTLASGVPSRFSGSGSGTDFTLTISSLQPEDVATYYCLGVYNDDVDNGFGGGTKVEIKR
# notes: one of the humanized antibodies; also called 472E4 humanized
# B11: 413F3 VHv1VLv1 (antibody, human IgG1, kappa, V domains shown)
# VH: EVQLVESGGGLVQPGGSLRLSCAASGIDFSSNYMCWVRQAPGKGLEWIACIYGDSSDNSYSASSAKGRFTISRDNSKNTLYLQMNSLRAEDTAVYYCARSGYSYLGYFNLWGQGTLVTVSS
# VL: DIQMTQSPSSLSASVGDRVTITCQASQSIYSNLAWYQQKPGKVPKLLIYSTSTLASGVPSRFSGSGSGTDFTLTISSLQPEDVATYYCQNYYGSSTDSYGNPFGGGTKVEIKR
# notes: one of the humanized antibodies; also called 413F3 humanized
# B12: 419D9 VHv3VLv3 (antibody, human IgG1, kappa, V domains shown)
# VH: EVQLLESGGGLVQPGGSLRLSCTASGFSFSSRHYMCWVRQAPGKGLEWIACIYTGSSGTPHYASSAKGRFTISQDNSKNTVTLQMNSLRAEDTAVYYCAREGNLWGQGTLVTVSS
# VL: DIQMTQSPSTLSASVGDRVTITCQSSQSVYSNWLSWYQQKPGKAPKRLIYSASTLASGVPSRFSGSGSGTEFTLTISSLQPDDFATYYCAGGYNTVTDTFAFGGGTKVEIKR
# notes: one of the humanized antibodies; also called 419D9 humanized
# B13: 460C3 VHv1VLv1 (antibody, human IgG1, kappa, V domains shown)
# VH: EVQLLESGGGLVQPGGSLRLSCAASGIDFSRRYYMCWVRQAPGKGLEWIACIYTGSRDTPHYASSAKGRFTISRDNSKNTLYLQMNSLRAEDTAVYYCAREGSLWGQGTLVTVSS
# VL: B12 VL with L34F, R47L, T97I
# notes: one of the humanized antibodies; also called 460C3 humanized
# B14: 420H6 VHv1VLv1 (antibody, human IgG1, kappa, V domains shown)
# VH: B13 VH with R31S, R32S, S56G, R57S, D58G
# VL: B12 VL with S25A, R47L, T97I
# notes: one of the humanized antibodies; also called 420H6 humanized
# B15: 459F1 VHv1VLv1 (antibody, human IgG1, kappa, V domains shown)
# VH: B13 VH with I52M, S103N
# VL: B12 VL with L34F, R47L
# notes: one of the humanized antibodies; also called 459F1 humanized
# B16: 466F6 VHv2VLv5 (antibody, human IgG1, kappa, V domains shown)
# VH: RSLVESGGGLVQPGGSLRLSCTASGFTISSYHMQWVRQAPGKGLEYIGTISSGGNVYYASSARGRFTISRPSSKNTVDLQMNSLRAEDTAVYYCARDSGYSDPMWGQGTLVTVSS
# VL: DVVMTQSPSSVSASVGDRVTITCQASQNIRTYLSWYQQKPGKAPKLLIYAAANLASGVPSRFSGSGSGTDFTLTISDLEPGDAATYYCQSTYLGTDYVGGAFGGGTKVEIKR
# notes: one of the humanized antibodies; also called 466F6 humanized
# B17: 464C11 VHv1VLv1 (antibody, human IgG1, kappa, V domains shown)
# VH: EVQLVESGGGLVQPGPSLRLSCTASGFSLSHYWMTWVRQAPGKGLEYIGFINVGGDTSYASSVKGRFTISRDDSKSIAYLQMNSLKTEDTAVYYCGRGGLTFGWDLWGQGTLVTVSS
# VL: DIQMTQSPSTLSASVGDRVTITCQSSQSVYSNSFLSWYQQKPGKAPKLLIYSASDLASGVPSRFSGSGSGTEFTLTISSLQPDDFATYYCAGVYSDNTYVFGGGTKVEIKR
# notes: one of the humanized antibodies; also called 464C11 humanized
# B18: 418E10 VHv1VLv1 (antibody, human IgG1, kappa, V domains shown)
# VH: EVQLVESGGGLVQPGGSLRLSCAASGFSLSTYYMSWVRQAPGKGLEWIGSIYDSGAAYYATSAKGRFTISRDNSKNTLYLQMNSLRAEDTAVYYCARDPINNAIWGQGTLVTVSS
# VL: DIQMTQSPSTLSASVGDRVTITCQASQSIGSNLNWYQQKPGKAPKLLIYYVSTLASGVPSRFSGSGSGTEFTLTISSLQPDDFATYYCLGVWNYWGDDGTAFGGGTKVEIKR
# notes: one of the humanized antibodies; also called 418E10 humanized
# B19: 418E4 VHv1VLv1 (antibody, human IgG1, kappa, V domains shown)
# VH: B18 VH with T31S, D53A, A56S, T61S, A103D
# VL: B18 VL with G30A, S31T, V51T, T53S
# notes: one of the humanized antibodies; also called 418E4 humanized
# B20: 418H5 VHv2VLv1 (antibody, human IgG1, kappa, V domains shown)
# VH: EVQLVESGGGLVQPGGSLRLSCTASGIDLSAYHMSWVRQAPGKGLEYIGMIGSSGTIHYANSAKGRFTISKDNTKNTVDLQMNSLRAEDTAVYYCARDSYNSDYAFNLWGQGTLVTVSS
# VL: DIQMTQSPSSVSASVGDRVTITCQSSPSVYKNNQLAWYQQKPGKAPKLLIYLASTLASGVPSRFSGSGSGTDFTLTISSLQPEDFATYYCAGGYSSSSDTAFGGGTKVEIKR
# notes: one of the humanized antibodies; also called 418H5 humanized
# B21: 416F8 VHv3VLv1 (antibody, human IgG1, kappa, V domains shown)
# VH: QSLVESGGGLVQPGGSLRLSCAASGFSLSNYYMNWVRQAPGKGLEYIGIISSSGSAYYASSAKGRFTISRDNSKNTLYLQMNSLRAEDTAVYYCARGDYGMDLWGQGTLVTVSS
# VL: DIQMTQSPSSLSASVGDRVTITCQSSQTVYNNNLLSWYQQKPGKVPKLLIYYASTLAFGVPSRFSGSGSGTDFTLTISSLQPEDVATYYCQGGYSGWIYVFGGGTKVEIKR
# notes: one of the humanized antibodies; also called 416F8 humanized
# B22: 420H5 VHv3VLv3 (antibody, human IgG1, kappa, V domains shown)
# VH: QSLVESGGGLVQPGGSLRLSCAASGFSFSSNYWICWVRQAPGKGLEWIACIYVGSSGDTYYASSAKGRFTISRDNSKNTLYLQMNSLRAEDTAVYYCARDSSSYYMFNLWGQGTLVTVSS
# VL: ALVMTQSPSTLSASVGDRVTINCQASEDIDTYLAWYQQKPGKAPKLLIFYASDLASGVPSRFSGSGSGTEFTLTISSLQPDDFATYYCQGGYYTSSADTRGAFGGGTKVEIKR
# notes: one of the humanized antibodies; also called 420H5 humanized
# B23: 470C6 VHv3VLv3 (antibody, human IgG1, kappa, V domains shown)
# VH: B22 VH with S29T, N31S, W33Y, I34M, V53T, D58S, S63N
# VL: B22 VL with T31N, A97T
# notes: one of the humanized antibodies; also called 470C6 humanized
# Biological target: T1, recombinant cynomolgus 4-1BB …
# Test: Octet BLI; chimeric IgG from transfection supernatant on anti-human Fc biosensor; recombinant cynomolgus 41BB; column kdis(1/s) Cynomolgus
# Excerpt: (§1) The heavy and light chain expression plasmids generated from each well were transiently co-transfected to produce rabbit/human chimeric antibodies. Recombinant antibody supernatants were confirmed to contain antibodies specific for human and cynomolgus 4-1BB using bio-layer interferometry analysis on a ForteBio Octet Red 96 instrument. Anti-human Fc biosensors (Pall ForteBio) were used to capture antibodies in the supernatants. Association to human or cynomolgus 4-1BB was observed by real-time interferometry by placing the biosensors in wells containing recombinant human or cynomolgus 4-1BB extracellular domain protein. Dissociation was measured after transfer of the biosensors into wells containing 10× kinetics buffer (Pall ForteBio). The software provided by the manufacturer was used to analyze the interferometry data. A summary of the primary BCC screening data and the corresponding screening data for 34 recombinant chimeric rabbit/human IgG antibodies is shown in FIG. 2.
row,koff [s⁻¹],Binder
1,0.0019,B1
2,0.0015,B2
3,0.005,B3
4,0.0014,B4
5,0.0075,B5
6,0.002,B6
7,0.0041,B7

# Biological target: T2, recombinant human 4-1BB extracellular domain protein (human, UniProt Q07011 24-186)
# T2 construct: extracellular domain; Analyte in the Octet assay; also called CD137; TNFRSF9
# Test: Octet, binding off-rate kdis; the sheet names no species of 41BB, paragraph 86: 'binding to human and recombinant 4-1BB by octet assay'
row,koff [s⁻¹],Binder
1,0.00179,B8
2,0.00166,B9
3,0.00265,B10
4,0.00224,B11
5,0.00284,B12
6,0.000728,B13
7,0.00128,B14
8,0.00131,B15
9,0.00254,B16
10,0.000784,B17
11,0.000958,B18
12,0.00277,B19
13,0.00245,B20
14,0.00645,B21
15,0.00178,B22
16,0.00183,B23

# Biological target: T2, recombinant human 4-1BB extracellular …
# Test: Octet BLI; chimeric IgG from transfection supernatant on anti-human Fc biosensor; recombinant human 41BB; column kdis(1/s) Human
# Excerpt: as §1
row,koff [s⁻¹],Binder
1,0.0014,B1
2,0.0011,B2
3,0.0036,B3
4,0.00063,B4
5,0.00075,B5
6,0.00094,B6
7,0.00067,B7
